According to patent publication US20260053920A1 (published 2026):

T1: IMP2 peptide on HLA-A*02:01 (human)
T1 peptide: NLSALGIFST

T2: BST2 peptide on HLA-A*02:01 (human)
T2 peptide: LLLGIGILVL


How the values were obtained:
[1] = target: T1, IMP2 peptide on HLA-A*02:01; experiment: multimer staining
[2] = target: T2, BST2 peptide on HLA-A*02:01; experiment: multimer staining
[3] = target: T1, IMP2 peptide on HLA-A*02:01; experiment: stated without data

| Binder | binding result [1] | binding result [2] | binding result [3] |
| --- | --- | --- | --- |
| MEL8 (TCR, V domains shown) Valpha: QKEVEQNSGPLSVPEGAIASLNCTYSDRGSQSFFWYRQYSGKSPELIMSIYSNGDKEDGRFTAQLNKASQYVSLLIRDSQPSDSATYLCAVQKLVFGTGTRLLVSP Vbeta: NAGVTQTPKFQVLKTGQSMTLQCAQDMNHEYMSWYRQDPGMGLRLIHYSVGAGITDQGEVPNGYNVSRSTTEDFPLRLLSAAPSQTSVYFCASSYSFTEATYEQYFGPGTRLTVT | recognises | recognises | – |
| MEL58 (TCR) alpha TRAV23DV6 TRAJ54 CDR3: CAARGAQKLVF beta TRBV6-5 TRBJ1-6 CDR3: CASSYVGLGSPLHF | – | – | recognises |
| MEL11 (TCR) alpha TRAV12-2*01 TRAJ30 CDR3: CAVNYEDDKIIF beta TRBV9 TRBJ2-7 CDR3: CASSVGVQGSWEQYF | recognises | recognises | – |

Now from value to binder:

| binding result [1] | binding result [2] | binding result [3] | Binder |
| --- | --- | --- | --- |
| recognises | no recognition | – | CLL9 (TCR) alpha TRAV12-2*01 TRAJ9 CDR3: CAVGAGGFKTIF beta TRBV2*02 TRBJ2-7 CDR3: CASSESPLSGNEQYF |
| recognises | recognises | – | MEL25 (TCR) alpha TRAV8-6 TRAJ47 CDR3: CAVSDNGNKLVF beta TRBV12-4 TRBJ2-7 CDR3: CASSWAGPVEQYF |
| – | – | recognises | MEL56 (TCR) alpha TRAV12-3 TRAJ35 CDR3: CAMSVGFGNVLHC beta TRBV27 TRBJ2-7 CDR3: CASSLGLAGNEQYF |
